Data set [1] has as its system COC(=O)c1ccccc1-c1c2ccc(=N)cc-2oc2cc(N)ccc12. Put plainly: uptake kinetics in HeLa cells, flow cytometry. Format: cell-based, Homo sapiens. Particulars: ATP.
Data set [2] shares this test system. The data set is described as follows: efflux kinetics in HeLa cells, flow cytometry. Format: cell-based, Homo sapiens. As to conditions: ATP. Background: In flow cytometry, cells or beads pass a laser one at a time.

In the case of “P-glycoprotein (P-gp) 14A mutant (Homo sapiens; F336A/F343A/L332A/L975A/M986A/S979A/V331A/V334A/V338A/V345A/V974A/V977A/V981A/V982A)”, the Km – broadly, the concentration of substrate that gives half-maximal velocity – in data set [1] was determined as 1.69 ± 0.12 µM.

For P-glycoprotein (P-gp) (Homo sapiens), the Km in data set [2] was determined as 2.98 ± 0.51 µM.
